According to article PMC12210985:

Assays:
[1] = target: T1, MBP-Crp-His6 (Shewanella oneidensis MR-1) (UniProt Q8EJ49); assay: MST; settings: EMSA: 2 mM EDTA, 20 mM KCl, 0.5 mM DTT, 4% Ficoll-400, pH 8.0, 2 ug poly(dI-dC), 10 nM probe, 10 uM cAMP for Crp; MST: 1x PBS pH 7.4, 0.05% Tween-20, 25 C
T1 sequence: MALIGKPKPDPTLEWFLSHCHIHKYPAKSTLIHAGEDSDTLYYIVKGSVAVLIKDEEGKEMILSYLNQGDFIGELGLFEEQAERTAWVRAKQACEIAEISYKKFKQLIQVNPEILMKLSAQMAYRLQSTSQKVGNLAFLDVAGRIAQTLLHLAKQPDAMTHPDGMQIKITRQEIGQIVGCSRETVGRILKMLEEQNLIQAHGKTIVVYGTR

[2] = target: T2, ArcA-P (Shewanella oneidensis MR-1) (UniProt Q8EAB9); assay: MST; settings: EMSA: 2 mM EDTA, 20 mM KCl, 0.5 mM DTT, 4% Ficoll-400, pH 8.0, 2 ug poly(dI-dC), 10 nM probe, 10 uM cAMP for Crp; MST: 1x PBS pH 7.4, 0.05% Tween-20, 25 C
T2 sequence: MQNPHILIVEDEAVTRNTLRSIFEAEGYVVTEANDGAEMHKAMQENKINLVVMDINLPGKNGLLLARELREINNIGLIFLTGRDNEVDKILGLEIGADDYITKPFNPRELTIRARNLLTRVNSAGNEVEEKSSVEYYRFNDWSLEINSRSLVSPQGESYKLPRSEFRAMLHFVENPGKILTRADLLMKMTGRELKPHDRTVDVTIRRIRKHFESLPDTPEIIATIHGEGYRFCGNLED

[3] = target: T2, ArcA-P (Shewanella oneidensis MR-1); assay: EMSA; settings: EMSA: 2 mM EDTA, 20 mM KCl, 0.5 mM DTT, 4% Ficoll-400, pH 8.0, 2 ug poly(dI-dC), 10 nM probe, 10 uM cAMP for Crp; MST: 1x PBS pH 7.4, 0.05% Tween-20, 25 C
[4] = target: T3, MBP-Crp (Shewanella oneidensis MR-1) (UniProt Q8EJ49); assay: EMSA; settings: EMSA: 2 mM EDTA, 20 mM KCl, 0.5 mM DTT, 4% Ficoll-400, pH 8.0, 2 ug poly(dI-dC), 10 nM probe, 10 uM cAMP for Crp; MST: 1x PBS pH 7.4, 0.05% Tween-20, 25 C
T3 sequence: T1 sequence

[5] = tested on: MBP-Crp-His6 (Shewanella oneidensis MR-1); assay: MST; settings: EMSA: 2 mM EDTA, 20 mM KCl, 0.5 mM DTT, 4% Ficoll-400, pH 8.0, 2 ug poly(dI-dC), 10 nM probe, 10 uM cAMP for Crp; MST: 1x PBS pH 7.4, 0.05% Tween-20, 25 C
[6] = tested on: ArcA-P (Shewanella oneidensis MR-1); assay: MST; settings: phosphorylated ArcA; EMSA: 2 mM EDTA, 20 mM KCl, 0.5 mM DTT, 4% Ficoll-400, pH 8.0, 2 ug poly(dI-dC), 10 nM probe, 10 uM cAMP for Crp; MST: 1x PBS pH 7.4, 0.05% Tween-20, 25 C

In the case of “AATAACAACCTCAACAAACTCATGTAAATGGCTAAGTTATACCACGGAACAGATAAGAGATAACTACTTTAGTCTAACTAAACAGGCAATTTAGCATTAAAGATATTTCAGAAACAATAAACCACACGATAAAATTTGAGCAGCAAAAAGGGGTAGTGTTCATAATTCTGTGTCATTTCAGTAAAATATTCAAAAACAGGAATGACAC (double strand) [ndh promoter probe (Pndh)]”, the binding [1] is reported as “binds”, the binding [2] is reported as “binds” and the binding [3] is reported as “binds”. For the same substance, the binding [4] was “binds”.

nqr1 promoter probe (PnqrA1) showed a Kd [5] of 120 nM and a Kd [6] of 560 nM.

nqr2 promoter probe (PnqrA2) was tested, and the Kd [5] was 2020 nM and the Kd [6] was 680 nM.
